The substances below were run against T1, YtrASa (Sulfolobus acidocaldarius) (UniProt Q4J7S4) (assay: EMSA). Conditions: 20 mM Tris-HCl pH 8.0, 1 mM MgCl2, 0.1 mM DTT, 12.5% glycerol, 50 mM NaCl, 0.4 mM EDTA, 37 C; ~0.1 nM 32P-DNA, excess non-specific competitor DNA; 6% native ….
T1 sequence: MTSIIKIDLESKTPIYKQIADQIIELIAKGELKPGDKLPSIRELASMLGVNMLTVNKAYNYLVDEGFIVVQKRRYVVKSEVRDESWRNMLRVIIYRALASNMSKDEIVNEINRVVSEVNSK

| Substance | binding | Kd |
| --- | --- | --- |
| AAAATGGGAGAGTAATCGGTTTTTATTGAGACTTCGCAATACGATATATATGGATACAAAAGTTGTAATTAGAAGAGATCAGTGGAAACCAGGATCGGCGATGGAAATAAAGCGAGGCGT (double strand) [Saci_1234 target] | no binding |  |
| AACTGCGGTGAATAAAGTAGGGTGTTTGATTTTTGCCAAAGAAGAGGGAGAATAGAGGAAGAAGAAAGGGCGACAAAGGACACGTTGGTAGCATACATTGTGACCA (double strand) [Saci_1554 target] | binds more weakly |  |
| AGCAACACCAAAGGATTGAATTTCATTTCTATCCCTGTTTGACTTAAAGCAAGACTCTTGAATAAAAAATATAATTTAGAGGTTTACTAAAAACAAACCGTGAACGTAGGAAGA (double strand) [Saci_0871 target] | no binding |  |
| CTTACCTTTTATAGTAGGTAAATAAGGTTTTTATTCCCCTAAATCATATATTTGCTATATGACAAGTATAATAAAAATCGACCTAGAGTCCAAGACTCCCATC (double strand) [ytrASa (Saci_1851) target, 102 bp] | binds | 37 nM |
| GGGAAAGGATATTGGGGAAATATTAAAAATACTGGGTTGAAGTTTAAACTTGTGTTTAAACAACTAATAATTAAATATTTTGGGATAATATCTGTTGTAATCCTTGCAACAATAATCTC (double strand) [Saci_0421 target] | no binding |  |
| GTTTTGAGTACAACCTAACCCATTATACTAAATAAGGTTTATTTATTTTAGTAACTTTTAGAAATTATGCAAGATCTTTTTTGGGAAAGTGCAAATTGCCTTGAGGGAAAAGGTCTGCAA (double strand) [Saci_2168 target] | no binding |  |
| Saci_2078 target, 100 bp |  | 34 nM |
| TCCTGAAGGCCTAAAAGAGTACATTCTAGACCTTTCCGCATAAAACTTAGGTAGGGCTAGGCATAATGCAAAAGCCCTCAAACTTTTCATTAAAGAAGTGATT (double strand) [Saci_0677 target] | no binding |  |
| TCGTCAACAACCTATATAAGCCATAACTTTAAATAAGGATATTGTTATATTTGTTATATGACAAATATGTTTTCATTACTCTACCCGCTAATCTCCATAG (double strand) [Saci_2078 target, 100 bp] |  | 34 nM |
| ytrASa (Saci_1851) target, 102 bp |  | 37 nM |

The substances below were run against T1, YtrASa (Sulfolobus acidocaldarius) (assay: DNase I footprinting). Conditions: 20 mM Tris-HCl pH 8.0, 1 mM MgCl2, 0.1 mM DTT, 12.5% glycerol, 50 mM NaCl, 0.4 mM EDTA, 37 C; ~0.1 nM 32P-DNA, excess non-specific competitor DNA; 6% native ….

| Substance | binding |
| --- | --- |
| CTTACCTTTTATAGTAGGTAAATAAGGTTTTTATTCCCCTAAATCATATATTTGCTATATGACAAGTATAATAAAAATCGACCTAGAGTCCAAGACTCCCATC (double strand) [ytrASa (Saci_1851) target, 102 bp] | binds |
| TCGTCAACAACCTATATAAGCCATAACTTTAAATAAGGATATTGTTATATTTGTTATATGACAAATATGTTTTCATTACTCTACCCGCTAATCTCCATAG (double strand) [Saci_2078 target, 100 bp] | binds |

— publication PMC6746942
